Test results as given in patent US20210395379A1 (NUMAB THERAPEUTICS, published 2021).

T1: human Fc-tagged OX40 (Acro-Biosystems, cat. OX0-H5255) (human, UniProt P43489 29-216)
T1 construct: also called human OX40; not shown: Fc tag
T1 sequence (looked up): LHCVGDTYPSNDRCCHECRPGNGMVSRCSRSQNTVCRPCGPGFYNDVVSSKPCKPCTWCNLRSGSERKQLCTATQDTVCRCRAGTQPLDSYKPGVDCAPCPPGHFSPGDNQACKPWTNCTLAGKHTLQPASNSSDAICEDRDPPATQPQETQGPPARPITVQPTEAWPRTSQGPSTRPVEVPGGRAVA

B1: PRO1359 (38-27-A11 sc02) (scFv)
scFv: DIQMTQSPSSLSASVGDRVTITCQASQSISNRLAWYQQKPGKAPKLLIYSASTLASGVPSRFSGSGSGTDFTLTISSLQPEDFATYYCQSTYYGNDGNAFGTGTKVTVLGGGGGSGGGGSGGGGSGGGGSEVQLVESGGGLVQPGGSLRLSCAASGFSFSANYYPCWVRQAPGKGLEWIGCIYGGSSDITYDANWTKGRFTISRDNSKNTVYLQMNSLRAEDTAVYYCARSAWYSGWGGDLWGQGTLVTVSS
notes: VL-linker-VH, CDR graft, Vk1/VH3; also called anti-4-1BB scFv
B2: PRO1360 (38-27-A11 sc03) (scFv)
scFv: DFQLTQSPSSLSASVGDRVTITCQASQSISNRLAWYQQKPGKPPKLLIYSASTLASGVPSRFSGSGSGTDFTLTISSLQPEDFATYYCQSTYYGNDGNAFGTGTKVTVLGGGGGSGGGGSGGGGSGGGGSESQLVESGGGLVQPGGSLRLSCAASGFSFSANYYPCWVRQAPGKGLEWIGCIYGGSSDITYDANWTKGRFTISRDNSKNTVYLQMNSLRAEDTAVYFCARSAWYSGWGGDLWGPGTLVTVSS
notes: VL-linker-VH, full graft, Vk1/VH3

Legend:
[1] = target: T2, human CD137 expressed on Jurkat cells (human, UniProt Q07011 24-255); assay: Flow cytometry on CD137 expressing Jurkat cells, detection with APC-labelled goat anti-human IgG
[2] = target: T3, human Fc-tagged CD40 (AcroBiosystems, cat. CD0-H5253) (human, UniProt P25942 21-193); assay: SPR (Biacore T200), Fc-tagged CD40 captured by anti-human Fc, scFv as analyte
T3 construct: also called human CD40; not shown: Fc tag
T3 sequence (P25942 21-193 limits assumed): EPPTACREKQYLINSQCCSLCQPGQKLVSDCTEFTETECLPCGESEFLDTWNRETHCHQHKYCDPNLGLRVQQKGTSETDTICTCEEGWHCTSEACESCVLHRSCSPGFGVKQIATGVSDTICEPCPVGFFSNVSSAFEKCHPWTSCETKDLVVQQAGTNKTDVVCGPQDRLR
Protocol: (§1) Binding of scFvs to human Fc-tagged CD40 (AcroBiosystems, cat. CD0-H5253) and human Fc-tagged OX40 (Acro-Biosystems, cat. OX0-H5255) was determined by SPR analysis on a T200 device (Biacore, GE Healthcare). In this experiment, Fc-tagged CD40 and OX40 were captured using the Human Antibody Capture kit from GE healthcare (cat. BR-1008-39). After each analyte injection cycle, the anti-human Fc-specific IgG was regenerated and new antigen was captured. The scFvs were injected as analyte using a high concentration of 180 nM of the analyte diluted in running buffer. Association and dissociation time were set to 300 s and 720 s, respectively. Obtained sensorgrams were fitted using the 1:1 binding model.

[3] = target: T1, human Fc-tagged OX40 (Acro-Biosystems, …); assay: SPR (Biacore T200), Fc-tagged OX40 captured by anti-human Fc, scFv as analyte
Protocol: as §1

[4] = target: T2, human CD137 expressed on Jurkat cells; assay: flow cytometry on CD137 expressing Jurkat cells, detection with APC labelled protein L
Protocol: 50,000 CD137 expressing Jurkat cells (or as reference cell line Jurkat cells lacking CD137 expression) were distributed to round bottom non-tissue culture treated 96 well plates. Cells were washed twice with 100 μl PBS by centrifugation at 400×g for 5 min. […] After 1 h incubation at 4° C. on a nutating mixer, cells were washed 3 times with 100 μl staining buffer and centrifugation steps of 5 min at 400×g. […] Plates were incubated 1 h at 4° C. on a nutating mixer, then washed 3 times with 100 μl of staining buffer and resuspended in a final volume of 50 μl of staining buffer. Finally, APC signal of 20,000 events per well was analyzed by flow cytometry using a Novocyte flow cytometer system (ACEA Bioscience).

[5] = target: T4, cynomolgus monkey Fc-tagged CD137 (R&D Systems, cat. 9324-4B-100) (cynomolgus monkey, UniProt A9YYE7 24-186); assay: SPR (Biacore T200), cynomolgus Fc-tagged CD137 captured by anti-human Fc, scFv as analyte
T4 construct: also called cynomolgus CD137; CD137-Fc chimeric protein (cynomolgus); not shown: the Fc tag (and any linker) of the bought chimera (R&D Systems, cat. 9324-4B-100)
T4 sequence (A9YYE7 entry or part of it limits assumed): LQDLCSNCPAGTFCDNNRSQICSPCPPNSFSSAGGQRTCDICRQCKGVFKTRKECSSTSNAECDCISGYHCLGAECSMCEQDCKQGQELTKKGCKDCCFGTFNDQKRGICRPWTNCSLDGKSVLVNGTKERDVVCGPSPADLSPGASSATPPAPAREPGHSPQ
Protocol: (§2) In this experiment, Fc tagged human CD137 (R&D Systems, cat. 838-4B-100) was captured using the Human Antibody Capture kit from GE healthcare (cat. BR-1008-39). After each analyte injection cycle, the anti-human Fc-specific IgG was regenerated and new antigen was captured. The scFvs were injected as analyte using a dose response multi-cycle kinetic assay over the captured CD137 with concentrations of the analyte ranging from 0.19 to 45 nM (three-fold dilutions steps) diluted in running buffer. Association and dissociation time were set to 300 s and 720 s, respectively. The obtained sensorgrams were fitted using the 1:1 binding model.
Cross-reactivity to cynomolgus CD137 was measured with cynomolgus monkey Fc-tagged CD137 (R&D Systems, cat. 9324-4B-100) in a similar assay as used to measure binding to human CD137.

[6] = target: T5, Fc tagged human CD137 (R&D Systems, cat. 838-4B-100) (human, UniProt Q07011 24-186); assay: SPR (Biacore T200), Fc tagged human CD137 captured by anti-human Fc, scFv as analyte 0.19-45 nM
T5 construct: Bought Fc chimera; also called CD137 Fc chimera; human CD137 (tagged with Fc); not shown: Fc tag of the bought chimera
Protocol: as §2

Molecule	EC50 (read off the curve) [1] [µg/mL]	binding result [2]	binding result [3]	EC50 [4] [µg/mL]	Maximum binding (relative to urelumab) [4] [%]	Kd [5] [nM]	koff [5] [s⁻¹]	kon [5] [M⁻¹ s⁻¹]	koff [6] [s⁻¹]	kon [6] [M⁻¹ s⁻¹]
urelumab (antibody)	0.06									
B1		no binding (tested: 180 nM)	no binding (tested: 180 nM)	3.99	18	2.88	0.00267	927000	0.00281	866000
B2		no binding (tested: 180 nM)	no binding (tested: 180 nM)	0.148	29	0.24	0.000252	1.05e+06	0.0003	1.28e+06
